Results published in publication PMC10397247.

Legend:
Test in all cases: two-hybrid library CCNG1;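 further: natural log of median RNA to DNA barcode read ratio; higher means stronger binding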
4H342-bN = molecular target: T1, 4H342-bN
T1 chain: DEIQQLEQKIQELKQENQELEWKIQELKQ

4H3632-bN = molecular target: T2, 4H3632-bN
T2 chain: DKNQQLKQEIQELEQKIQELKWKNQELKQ

4H4001-bN = molecular target: T3, 4H4001-bN
T3 chain: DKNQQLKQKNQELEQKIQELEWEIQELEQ

4H48-bN = molecular target: T4, 4H48-bN
T4 chain: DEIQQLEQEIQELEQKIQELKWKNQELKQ

4H491-bN = molecular target: T5, 4H491-bN
T5 chain: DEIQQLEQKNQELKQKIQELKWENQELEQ

4H496-bN = molecular target: T6, 4H496-bN
T6 chain: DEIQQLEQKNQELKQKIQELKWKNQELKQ

4H48-bH = molecular target: T7, 4H48-bH
T7 chain: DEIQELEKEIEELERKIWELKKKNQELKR

4H491-bH = molecular target: T8, 4H491-bH
T8 chain: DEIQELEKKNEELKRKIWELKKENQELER

O6-bP = molecular target: T9, O6-bP
T9 chain: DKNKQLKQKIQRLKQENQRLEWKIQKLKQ

4H3632-bH = molecular target: T10, 4H3632-bH
T10 chain: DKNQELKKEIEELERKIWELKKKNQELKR

4H496-bH = molecular target: T11, 4H496-bH
T11 chain: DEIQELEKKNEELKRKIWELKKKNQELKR

## DEIQQLEQKIQELKQENQELEWKIQELKQ [4H342-bN]
4H342-bN
  interaction score: 1.33
4H3632-bN
  interaction score: 0.807
4H4001-bN
  interaction score: -0.0564
4H48-bN
  interaction score: -1.99
4H491-bN
  interaction score: 1.47
4H496-bN
  interaction score: 1.56

## DEIQELEKEIEELERKIWELKKKNQELKR [4H48-bH]
4H48-bH
  interaction score: 1.21
4H491-bH
  interaction score: 2.29
O6-bP
  interaction score: -0.138

## DKNQELKKEIEELERKIWELKKKNQELKR [4H3632-bH]
4H3632-bH
  interaction score: -0.234
4H496-bH
  interaction score: -2.56
